Test [1] addresses T1, recombinant hIgG1 Fc-tagged cynomolgus monkey B7H4 (Creative BioMart, cat. no. VTCN1-1517R) (cynomolgus monkey, UniProt Q7Z7D3 25-259 (human entry)).
T1 construct: Bought protein; also called cynomolgus monkey B7H4 extracellular domain
T1 sequence: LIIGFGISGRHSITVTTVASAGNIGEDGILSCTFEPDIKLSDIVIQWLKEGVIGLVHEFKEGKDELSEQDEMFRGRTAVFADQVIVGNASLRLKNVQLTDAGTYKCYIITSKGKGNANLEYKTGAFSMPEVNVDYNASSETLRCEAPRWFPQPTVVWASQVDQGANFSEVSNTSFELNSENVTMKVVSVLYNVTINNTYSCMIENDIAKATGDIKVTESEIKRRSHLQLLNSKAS
Nature of the test: BLI (Octet HTX); Fc-tagged cynomolgus B7H4 coupled to AR2G sensor, bispecific antibody in solution (monovalent B7H4 binding); 1st experiment. The method, then: In addition, the affinity of for cynomolgus monkey B7H4 was determined by BLI. […] Amine Reactive 2nd Generation (AR2G) biosensors (FortéBio, cat. no. 18-5092) were activated by reaction with 20 mM EDC (N-(3-Dimethylaminopropyl)-N′-ethylcarbodiimide hydrochloride) (FortéBio, cat. no. 18-1033) and 10 mM s-NHS (N-hydroxysulfosuccinimide sodium salt) (FortéBio, cat. no. 18-1067) for 300 s. The activated sensors were loaded with 10 μg/mL recombinant hIgG1 Fc-tagged cynomolgus monkey B7H4 (Creative BioMart, cat. no. VTCN1-1517R) in 10 mM Sodium Acetate pH 4.0 (FortéBio, cat. no. 18-1068) for 600 s and quenched with 1 M ethanolamine pH 8.5 (FortéBio, cat. no. 18-1071) for 300 s. […] A molecular mass of 150 kDa of the antibodies was used for calculations. For each antibody a reference sensor was used, which was incubated with Sample Diluent instead of antibody.
Data were acquired using Data Acquisition Software v9.0.0.49d (FortéBio) and analyzed with Data Analysis Software v9.0.0.12 (FortéBio). Data traces were corrected per antibody by subtraction of the reference sensor. The Y-axis was aligned to the last 10 s of the baseline, Interstep Correction alignment to dissociation and Savitzky-Golay filtering were applied. Data traces with a response<0.05 nm were excluded from analysis. The data was fitted with the 1:1 Global Full fit model using a window of interest for the association and dissociation times set at 100 s and 200 s respectively.

Test [2] deals with T2, B7H4-IgV/B7H3-IgC.
T2 construct: also called chimeric molecule with the IgV domain of B7H4 and the IgC domain of B7H3
T2 full-length chimeric protein on cells: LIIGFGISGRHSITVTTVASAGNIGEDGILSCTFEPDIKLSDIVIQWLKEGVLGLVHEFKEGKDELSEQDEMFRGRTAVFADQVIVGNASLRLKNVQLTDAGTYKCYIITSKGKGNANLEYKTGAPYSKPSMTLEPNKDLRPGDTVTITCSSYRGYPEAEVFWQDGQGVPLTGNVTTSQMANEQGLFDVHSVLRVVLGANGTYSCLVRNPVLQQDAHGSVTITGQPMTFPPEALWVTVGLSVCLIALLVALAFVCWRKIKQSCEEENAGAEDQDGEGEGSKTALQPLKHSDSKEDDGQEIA
As to the kind of experiment: flow cytometry, HEK cells transiently transfected with B7H4-IgV/B7H3-IgC, PE anti-human IgG F(ab')2 [panel B7H4-IgV/B7H3-IgC]. In general terms: Flow cytometry measures light scatter and fluorescence of single cells or particles in a stream.
Method: After washing twice in FACS buffer, cells were incubated with secondary antibody at 4° C. for 30 min. […] Next, cells were washed twice in FACS buffer, re-suspended in 20 μL FACS buffer and analyzed on an iQue Screener (Intellicyt Corporation, USA).
Further experiments were conducted to study the B7H4 domain specificity of the B7H4 antibodies in more detail, by analysis of full dose-response curves.

Test [3] has as its target T3, pig (Sus scrofa) B7H4, full length, on HEK-293F cells (pig, UniProt Q7Z7D3 26-282 (human entry)).
T3 construct: Uniprot F1SAY4; also called pig B7H4
T3 chain: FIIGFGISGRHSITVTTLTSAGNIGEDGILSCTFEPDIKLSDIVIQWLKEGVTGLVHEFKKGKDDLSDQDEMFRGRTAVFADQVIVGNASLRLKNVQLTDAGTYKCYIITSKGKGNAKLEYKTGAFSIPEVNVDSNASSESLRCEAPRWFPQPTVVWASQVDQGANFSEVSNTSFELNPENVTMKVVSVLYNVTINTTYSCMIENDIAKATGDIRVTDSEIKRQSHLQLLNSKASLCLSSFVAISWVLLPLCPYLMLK
Nature of the test: flow cytometry, HEK-293F cells transfected with pig B7H4 [panel Pig B7H4]. As to the method:
Cells (3×10⁴ cells/well) were incubated in polystyrene 96-well round-bottom plates (Greiner bio-one, cat. no. 650180) with serial dilutions of antibodies (ranging from 0.000458 to 30 μg/mL in 4-fold dilution steps) in 100 μL PBS/0.1% BSA/0.02% azide (staining buffer) at 4° C. for 30 min. Experiments were performed in technical duplicate. After washing twice in staining buffer, cells were incubated in 50 μL secondary antibody at 4° C. for 30 min. As a secondary antibody, R-Phycoerythrin (PE)-conjugated goat-anti-human IgG F(ab′)₂ (1:500 in FACS buffer; Jackson ImmunoResearch Laboratories, Inc., West Grove, PA, cat. no. 109-116-098), was used. Cells were washed twice in staining buffer, re-suspended in 30 μL FACS buffer containing Topro-3 (1:10,000 dilution) and analyzed on an iQue Screener (Intellicyt Corporation, USA). Binding curves were analyzed using non-linear regression (sigmoidal dose-response with variable slope) using GraphPad Prism V7.02 software (GraphPad Software, San Diego, CA, USA).

B1: bsIgG1-huCD3-FEALxB7H4-C1-FEAR (bispecific antibody)
heavy 1: not shown
light 1: not shown
heavy 2: QVQLQQWGAGLLKPSETLSLTCAVYGGSFSGYYWSWIRQPPGKGLEWIGEINHSGSTNYNPSLKSRVTISIDTSKNQFSLKLTSVTAADTAVFYCARGLFNWNFDSWGQGTLVTVSSASTKGPSVFPLAPSSKSTSGGTAALGCLVKDYFPEPVTVSWNSGALTSGVHTFPAVLQSSGLYSLSSVVTVPSSSLGTQTYICNVNHKPSNTKVDKRVEPKSCDKTHTCPPCPAPEFEGGPSVFLFPPKPKDTLMISRTPEVTCVVVAVSHEDPEVKFNWYVDGVEVHNAKTKPREEQYNSTYRVVSVLTVLHQDWLNGKEYKCKVSNKALPAPIEKTISKAKGQPREPQVYTLPPSREEMTKNQVSLTCLVKGFYPSDIAVEWESNGQPENNYKTTPPVLDSDGSFFLYSRLTVDKSRWQQGNVFSCSVMHEALHNHYTQKSLSLSPGK
light 2: DIQMTQSPSSLSASVGDRVTITCRASQGIRNDLGWYQQKPGKAPKRLIYGASSLQSGVPSRFSGSGSGTEFTLTISSLQPEDFATYYCLQHNSYPRTFGQGTTVEIKRTVAAPSVFIFPPSDEQLKSGTASVVCLLNNFYPREAKVQWKVDNALQSGNSQESVTEQDSKDSTYSLSSTLTLSKADYEKHKVYACEVTHQGLSSPVTKSFNRGEC
notes: also called bslgG1-huCD3-FEALxB7H4-C1-FEAR
A word on the Kd: it is the concentration at which binding is half-saturated. What is called koff is the rate constant with which the complex falls apart. The kon is the rate constant with which the complex forms. Turning to B1, in test [1], the Kd is 5.1 nM, the koff came to 0.0014 s⁻¹ and the association rate constant (kon) came to 270000 M⁻¹ s⁻¹.

B2: bsIgG1-huCD3-H101G-FEALxB7H4-C2-FEAR (bispecific antibody)
heavy 1: not shown
light 1: not shown
heavy 2: EVQLVQSGAEVKKPGASVKVSCKASGYTFTSYWIGWVRQAPGQGLEWIGDIYPGGGYTNYNEKFKGRVTITRDTSTSTAYLELSSLRSEDTAVYYCARLDGSSYRGAMDSWGQGTLVTVSSASTKGPSVFPLAPSSKSTSGGTAALGCLVKDYFPEPVTVSWNSGALTSGVHTFPAVLQSSGLYSLSSVVTVPSSSLGTQTYICNVNHKPSNTKVDKRVEPKSCDKTHTCPPCPAPEFEGGPSVFLFPPKPKDTLMISRTPEVTCVVVAVSHEDPEVKFNWYVDGVEVHNAKTKPREEQYNSTYRVVSVLTVLHQDWLNGKEYKCKVSNKALPAPIEKTISKAKGQPREPQVYTLPPSREEMTKNQVSLTCLVKGFYPSDIAVEWESNGQPENNYKTTPPVLDSDGSFFLYSRLTVDKSRWQQGNVFSCSVMHEALHNHYTQKSLSLSPGK
light 2: DIQMTQSPSSLSASVGDRVTITCKASQGFNKYVAWYQQKPGKAPKLLIYYTSTLQPGVPSRFSGSGSGRDYTLTISSLQPEDFATYYCLQYGNLLYAFGQGTKVEIKRTVAAPSVFIFPPSDEQLKSGTASVVCLLNNFYPREAKVQWKVDNALQSGNSQESVTEQDSKDSTYSLSSTLTLSKADYEKHKVYACEVTHQGLSSPVTKSFNRGEC
notes: also called bslgG1-huCD3-H101G-FEALxB7H4-C2-FEAR
By EC50 (read off the curve) is commonly meant the concentration giving half of the maximal effect. As to B2, the “EC50 (read off the curve)” value in test [2] is around 2 µg/mL.

B3: IgG1-B7H4-C3-FEAR (antibody, V domains shown)
VH: EVQLVQSGAEVKKPGASVKVSCKASGYTFTNFWIHWVRQAPGQGLEWIGEIDPSDSYTNYNQKFKGRVTITRDTSTSTAYLELSSLRSEDTAVYYCAREITTVDYWGQGTLVTVSS
VL: DIQMTQSPSSLSASVGDRVTITCSATSSISYMHWYQQKPGKAPKGWIYDTSKLAHGVPSRFSGSGSGTDFTLTISSLQPEDFATYYCHQRRSYPFTFGQGTKVEIKR
notes: Full length IgG1 FEAR, kappa; variable domains from WO2014159835
Turning to B3, in test [3], the binding result was “no binding (tested: 30 µg/ml)”.

Source of the values: US20240383982A1 (Genmab, published 2024).
